PMC6477152 (2019)

B1: FIP200ΔN1115:Luciferase [human] / GST:SINTBADaa5-85 [human] (parent complex)
chain 1: ENYQVGLAELRTLMTIEKDQCISELISRHEEESNILKAELNKVTSLHNQAFEIEKNLKEQIIELQSKLDSELSALERQKDEKITQQEEKYEAIIQNLEKDRQKLVSSQEQDREQLIQKLNCEKDEAIQTALKEFKLEREVVEKELLEKVKHLENQIAKSPAIDSTRGDSSSLVAELQEKLQEEKAKFLEQLEEQEKRKNEEMQNVRTSLIAEQQTNFNTVLTREKMRKENIINDLSDKLKSTMQQQERDKDLIESLSEDRARLLEEKKKLEEEVSKLRSSSFVPSPYVATAPELYGACAPELPGESDRSAVETADEGRVDSAMETSMMSVQENIHMLSEEKQRIMLLERTLQLKEEENKRLNQRLMSQSMSSVSSRHSEKIAIRDFQVGDLVLIILDERHDNYVLFTVSPTLYFLHSESLPALDLKPGEGASGASRRPWVLGKVMEKEYCQAKKAQNRFKVPLGTKFYRVKAVSWNKKV
chain 2: FEDDISILTQEALGPSEVWLDSPGDPSLGGDMCSASHFALITAYGDIKERLGGLERENATLRRRLKVYEIKYPLISDFGEE

Variants of: B1
Assay: LUMIER assay; HEK293ET cell lysates; read off a plot
Variant chain 1 ENYQVGLAELRTLMTIEKDQCISELISRHEEESNILKAELNKVTSLHNQAFEIEKNLKEQIIELQSKLDSELSALERQKDEKITQQEEKYEAIIQNLEKDRQKLVSSQEQDREQLIQKLNCEKDEAIQTALKEFKLEREVVEKELLEKVKHLENQIAKSPAIDSTRGDSSSLVAELQEKLQEEKAKFLEQLEEQEKRKNEEMQNVRTSLIAEQQTNFNTVLTREKMRKENIINDLSDKLKSTMQQQERDKDLIESLSEDRARLLEEKKKLEEEVSKLRSSSFVPSPYVATAPELYGACAPELPGESDRSAVETADEGRVDSAMETSMMSVQENIHMLSEEKQRIMLLERTLQLKEEENKRLNQRLMSQSMSSVSSRHSEKIAIRDFQVGDLVLIILDERHDNYVLFTVSPTLYFLHSESLPALDLKPGEGASGASRRPWVLGKVMEKEYCQAKKAQNRFKSPLGTKFYRVKAVSWNKKV [chain 1 V461S] has a response of roughly 6.4 fold binding. Variant chain 1 ENYQVGLAELRTLMTIEKDQCISELISRHEEESNILKAELNKVTSLHNQAFEIEKNLKEQIIELQSKLDSELSALERQKDEKITQQEEKYEAIIQNLEKDRQKLVSSQEQDREQLIQKLNCEKDEAIQTALKEFKLEREVVEKELLEKVKHLENQIAKSPAIDSTRGDSSSLVAELQEKLQEEKAKFLEQLEEQEKRKNEEMQNVRTSLIAEQQTNFNTVLTREKMRKENIINDLSDKLKSTMQQQERDKDLIESLSEDRARLLEEKKKLEEEVSKLRSSSFVPSPYVATAPELYGACAPELPGESDRSAVETADEGRVDSAMETSMMSVQENIHMLSEEKQRIMLLERTLQLKEEENKRLNQRLMSQSMSSVSSRHSEKIAIRDFQVGDLVLIILDERHDNYVLFTVSPTLYFLHSESLPALDLKPGEGASGASRRPWVLGKVMEKEYCQSKKAQNRFKVPLGTKFYRVKAVSWNKKV [chain 1 A452S] has a response of roughly 280 fold binding. Work on chain 1 ENYQVGLAELRTLMTIEKDQCISELISRHEEESNILKAELNKVTSLHNQAFEIEKNLKEQIIELQSKLDSELSALERQKDEKITQQEEKYEAIIQNLEKDRQKLVSSQEQDREQLIQKLNCEKDEAIQTALKEFKLEREVVEKELLEKVKHLENQIAKSPAIDSTRGDSSSLVAELQEKLQEEKAKFLEQLEEQEKRKNEEMQNVRTSLIAEQQTNFNTVLTREKMRKENIINDLSDKLKSTMQQQERDKDLIESLSEDRARLLEEKKKLEEEVSKLRSSSFVPSPYVATAPELYGACAPELPGESDRSAVETADEGRVDSAMETSMMSVQENIHMLSEEKQRIMLLERTLQLKEEENKRLNQRLMSQSMSSVSSRHSEKIAIRDFQVGDLVLIILDERHDNYVLFTVSPTLYFLHSESLPALDLKPGEGASGASRRPWVLGKVMEKEYCQAKKAQSRFKVPLGTKFYRVKAVSWNKKV [chain 1 N457S] yielded a response of roughly 7.8 fold binding. chain 1 ENYQVGLAELRTLMTIEKDQCISELISRHEEESNILKAELNKVTSLHNQAFEIEKNLKEQIIELQSKLDSELSALERQKDEKITQQEEKYEAIIQNLEKDRQKLVSSQEQDREQLIQKLNCEKDEAIQTALKEFKLEREVVEKELLEKVKHLENQIAKSPAIDSTRGDSSSLVAELQEKLQEEKAKFLEQLEEQEKRKNEEMQNVRTSLIAEQQTNFNTVLTREKMRKENIINDLSDKLKSTMQQQERDKDLIESLSEDRARLLEEKKKLEEEVSKLRSSSFVPSPYVATAPELYGACAPELPGESDRSAVETADEGRVDSAMETSMMSVQENIHMLSEEKQRIMLLERTLQLKEEENKRLNQRLMSQSMSSVSSRHSEKIAIRDFQVGDLVLIILDERHDNYVLFTVSPTLYFLHSESLPALDLKPGEGASGASRRPWVLGKVMEKEYCQAKKAQNRSKVPLGTKFYRVKAVSWNKKV [chain 1 F459S] gave a response of roughly 6.2 fold binding.

Variants of: B1
Assay: LUMIER assay; HEK293ET cell lysates; bacterially expressed GST bait; read off a plot
With chain 1 ENYQVGLAELRTLMTIEKDQCISELISRHEEESNILKAELNKVTSLHNQAFEIEKNLKEQIIELQSKLDSELSALERQKDEKITQQEEKYEAIIQNLEKDRQKLVSSQEQDREQLIQKLNCEKDEAIQTALKEFKLEREVVEKELLEKVKHLENQIAKSPAIDSTRGDSSSLVAELQEKLQEEKAKFLEQLEEQEKRKNEEMQNVRTSLIAEQQTNFNTVLTREKMRKENIINDLSDKLKSTMQQQERDKDLIESLSEDRARLLEEKKKLEEEVSKLRSSSFVPSPYVATAPELYGACAPELPGESDRSAVETADEGRVDSAMETSMMSVQENIHMLSEEKQRIMLLERTLQLKEEENKRLNQRLMSQSMSSVSSRHSEKIAIRDFQVGDLVLIILDERHDNYVLFTVSPTLYFLHSESLPALDLKPGEGASGASRRPWVLGKVMEKEYCQSKKAQNRFKVPLGTKFYRVKAVSWNKKV [chain 1 A452S] the response was roughly 59 fold binding. Variant chain 1 ENYQVGLAELRTLMTIEKDQCISELISRHEEESNILKAELNKVTSLHNQAFEIEKNLKEQIIELQSKLDSELSALERQKDEKITQQEEKYEAIIQNLEKDRQKLVSSQEQDREQLIQKLNCEKDEAIQTALKEFKLEREVVEKELLEKVKHLENQIAKSPAIDSTRGDSSSLVAELQEKLQEEKAKFLEQLEEQEKRKNEEMQNVRTSLIAEQQTNFNTVLTREKMRKENIINDLSDKLKSTMQQQERDKDLIESLSEDRARLLEEKKKLEEEVSKLRSSSFVPSPYVATAPELYGACAPELPGESDRSAVETADEGRVDSAMETSMMSVQENIHMLSEEKQRIMLLERTLALKEEENKRLNQRLMSQSMSSVSSRHSEKIAIRDFQVGDLVLIILDERHDNYVLFTVSPTLYFLHSESLPALDLKPGEGASGASRRPWVLGKVMEKEYCQAKKAQNRFKVPLGTKFYRVKAVSWNKKV [chain 1 Q352A] has a response of roughly 210 fold binding. chain 1 ENYQVGLAELRTLMTIEKDQCISELISRHEEESNILKAELNKVTSLHNQAFEIEKNLKEQIIELQSKLDSELSALERQKDEKITQQEEKYEAIIQNLEKDRQKLVSSQEQDREQLIQKLNCEKDEAIQTALKEFKLEREVVEKELLEKVKHLENQIAKSPAIDSTRGDSSSLVAELQEKLQEEKAKFLEQLEEQEKRKNEEMQNVRTSLIAEQQTNFNTVLTREKMRKENIINDLSDKLKSTMQQQERDKDLIESLSEDRARLLEEKKKLEEEVSKLRSSSFVPSPYVATAPELYGACAPELPGESDRSAVETADEGRVDSAMETSMMSVQENIHMLSEEKQRIMLLARTLQLKEEENKRLNQRLMSQSMSSVSSRHSEKIAIRDFQVGDLVLIILDERHDNYVLFTVSPTLYFLHSESLPALDLKPGEGASGASRRPWVLGKVMEKEYCQAKKAQNRFKVPLGTKFYRVKAVSWNKKV [chain 1 E348A] was tested, and the response was roughly 200 fold binding. Work on chain 1 ENYQVGLAELRTLMTIEKDQCISELISRHEEESNILKAELNKVTSLHNQAFEIEKNLKEQIIELQSKLDSELSALERQKDEKITQQEEKYEAIIQNLEKDRQKLVSSQEQDREQLIQKLNCEKDEAIQTALKEFKLEREVVEKELLEKVKHLENQIAKSPAIDSTRGDSSSLVAELQEKLQEEKAKFLEQLEEQEKRKNEEMQNVRTSLIAEQQTNFNTVLTREKMRKENIINDLSDKLKSTMQQQERDKDLIESLSEDRARLLEEKKKLEEEVSKLRSSSFVPSPYVATAPELYGACAPELPGESDRSAVETADEGRVDSAMETSMMSVQENIHMLSEEKQRIMLLERTLQAKEEENKRLNQRLMSQSMSSVSSRHSEKIAIRDFQVGDLVLIILDERHDNYVLFTVSPTLYFLHSESLPALDLKPGEGASGASRRPWVLGKVMEKEYCQAKKAQNRFKVPLGTKFYRVKAVSWNKKV [chain 1 L353A] yielded a response of roughly 170 fold binding. chain 1 ENYQVGLAELRTLMTIEKDQCISELISRHEEESNILKAELNKVTSLHNQAFEIEKNLKEQIIELQSKLDSELSALERQKDEKITQQEEKYEAIIQNLEKDRQKLVSSQEQDREQLIQKLNCEKDEAIQTALKEFKLEREVVEKELLEKVKHLENQIAKSPAIDSTRGDSSSLVAELQEKLQEEKAKFLEQLEEQEKRKNEEMQNVRTSLIAEQQTNFNTVLTREKMRKENIINDLSDKLKSTMQQQERDKDLIESLSEDRARLLEEKKKLEEEVSKLRSSSFVPSPYVATAPELYGACAPELPGESDRSAVETADEGRVDSAMETSMMSVQENIHMLSEEKQRIMLAERTLQLKEEENKRLNQRLMSQSMSSVSSRHSEKIAIRDFQVGDLVLIILDERHDNYVLFTVSPTLYFLHSESLPALDLKPGEGASGASRRPWVLGKVMEKEYCQAKKAQNRFKVPLGTKFYRVKAVSWNKKV [chain 1 L347A] was tested, and the response was roughly 99 fold binding. In the case of chain 1 ENYQVGLAELRTLMTIEKDQCISELISRHEEESNILKAELNKVTSLHNQAFEIEKNLKEQIIELQSKLDSELSALERQKDEKITQQEEKYEAIIQNLEKDRQKLVSSQEQDREQLIQKLNCEKDEAIQTALKEFKLEREVVEKELLEKVKHLENQIAKSPAIDSTRGDSSSLVAELQEKLQEEKAKFLEQLEEQEKRKNEEMQNVRTSLIAEQQTNFNTVLTREKMRKENIINDLSDKLKSTMQQQERDKDLIESLSEDRARLLEEKKKLEEEVSKLRSSSFVPSPYVATAPELYGACAPELPGESDRSAVETADEGRVDSAMETSMMSVQENIHMLSEEKQRIMLLEATLQLKEEENKRLNQRLMSQSMSSVSSRHSEKIAIRDFQVGDLVLIILDERHDNYVLFTVSPTLYFLHSESLPALDLKPGEGASGASRRPWVLGKVMEKEYCQAKKAQNRFKVPLGTKFYRVKAVSWNKKV [chain 1 R349A], the response is reported as roughly 170 fold binding. Variant chain 1 ENYQVGLAELRTLMTIEKDQCISELISRHEEESNILKAELNKVTSLHNQAFEIEKNLKEQIIELQSKLDSELSALERQKDEKITQQEEKYEAIIQNLEKDRQKLVSSQEQDREQLIQKLNCEKDEAIQTALKEFKLEREVVEKELLEKVKHLENQIAKSPAIDSTRGDSSSLVAELQEKLQEEKAKFLEQLEEQEKRKNEEMQNVRTSLIAEQQTNFNTVLTREKMRKENIINDLSDKLKSTMQQQERDKDLIESLSEDRARLLEEKKKLEEEVSKLRSSSFVPSPYVATAPELYGACAPELPGESDRSAVETADEGRVDSAMETSMMSVQENIHMLSEEKQRIMLLERTAQLKEEENKRLNQRLMSQSMSSVSSRHSEKIAIRDFQVGDLVLIILDERHDNYVLFTVSPTLYFLHSESLPALDLKPGEGASGASRRPWVLGKVMEKEYCQAKKAQNRFKVPLGTKFYRVKAVSWNKKV [chain 1 L351A] has a response of roughly 110 fold binding. chain 1 ENYQVGLAELRTLMTIEKDQCISELISRHEEESNILKAELNKVTSLHNQAFEIEKNLKEQIIELQSKLDSELSALERQKDEKITQQEEKYEAIIQNLEKDRQKLVSSQEQDREQLIQKLNCEKDEAIQTALKEFKLEREVVEKELLEKVKHLENQIAKSPAIDSTRGDSSSLVAELQEKLQEEKAKFLEQLEEQEKRKNEEMQNVRTSLIAEQQTNFNTVLTREKMRKENIINDLSDKLKSTMQQQERDKDLIESLSEDRARLLEEKKKLEEEVSKLRSSSFVPSPYVATAPELYGACAPELPGESDRSAVETADEGRVDSAMETSMMSVQENIHMLSEEKQRIMLLERALQLKEEENKRLNQRLMSQSMSSVSSRHSEKIAIRDFQVGDLVLIILDERHDNYVLFTVSPTLYFLHSESLPALDLKPGEGASGASRRPWVLGKVMEKEYCQAKKAQNRFKVPLGTKFYRVKAVSWNKKV [chain 1 T350A] was tested, and the response was roughly 180 fold binding.
